Non-standard residues stand in square brackets, D forms with d. Residues, ends and D or L forms follow the SMILES beside them. No end group written: not given here. *: point of attachment. Benzoyl(4-octyl) = CCCCCCCCc1ccc(C(=O)*)cc1; pT = C[C@@H](OP(=O)(O)O)[C@H](N)C(=O)O

Experimental findings from article PMC7703809 (ChemMedChem, 2020) are described below.

For one assay, the target named is T1, PLK3 PBD (335–646) (Homo sapiens, UniProt Q9H4B4).
T1 sequence (Q9H4B4 335-646): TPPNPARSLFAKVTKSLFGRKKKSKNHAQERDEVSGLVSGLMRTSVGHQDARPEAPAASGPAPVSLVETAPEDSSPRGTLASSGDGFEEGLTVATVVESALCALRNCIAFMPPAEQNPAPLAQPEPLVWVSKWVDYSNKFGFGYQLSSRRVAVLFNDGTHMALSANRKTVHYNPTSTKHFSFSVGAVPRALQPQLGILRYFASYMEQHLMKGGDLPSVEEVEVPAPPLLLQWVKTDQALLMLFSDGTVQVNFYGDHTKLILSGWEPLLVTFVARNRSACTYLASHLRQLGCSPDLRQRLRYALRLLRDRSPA
Put plainly: Fluorescence polarization competitive binding assay, PLK3 PBD.

A further assay concerns the target PLK1 PBD (367–603) (Homo sapiens, UniProt P53350). Put plainly: Fluorescence polarization competitive binding assay, PLK1 PBD. The conditions noted are these: for Selectivity Index: PLK1 vs PLK3 PBD, accounting for 5-fold difference in tracer affinity.
The target of another assay is T2, PLK3 consensus peptide 7.
T2 chain: GPLATS[pT]PKNG
Put plainly: fluorescence polarization competition. (Fluorescence polarisation rises when a labelled molecule tumbles more slowly, as on binding a larger partner.)

The target in the next assay is T3, chimeric peptide 8.
T3 chain: GPLATS[pT]PNGL
Put plainly: fluorescence polarization competition.

For the next assay, the target named is T4, chimeric peptide 9.
T4 chain: Ac-PLHS[pT]PKNG
Briefly: fluorescence polarization competition.

The target in another assay is T5, FLIP 21.
T5 chain: {Benzoyl(4-octyl)}-S[pT]PNGL
Put plainly: fluorescence polarization competition.

In the next assay the target is T6, Cdc25C phosphopeptide 1 (Homo sapiens).
T6 chain: LLCS[pT]PNGL
Briefly: fluorescence polarization competition.

Another assay deals with T7, chimeric peptide 3.
T7 chain: Ac-PLHS[pT]PNGL
Put plainly: fluorescence polarization competition.

The target in the next assay is T8, FLIP 19.
T8 chain: {4‑butylbenzoyl}-S[pT]PNGL
Put plainly: fluorescence polarization competition.

In another assay the target is T9, PBIP phosphopeptide 4 (Homo sapiens).
T9 chain: Ac-PLHS[pT]AI
Briefly: fluorescence polarization competition.

In a further assay the target is T10, PBIP phosphopeptide 6 (Homo sapiens).
T10 chain: Ac-PLHS[pT]A
Put plainly: fluorescence polarization competition.

The target of a further assay is T11, PBIP phosphopeptide 5 (Homo sapiens).
T11 chain: Ac-LHS[pT]AI
Put plainly: fluorescence polarization competition.

Assay [1] has as its target T12, PLK3 fluorescein tracer phosphopeptide (also: fluorescein label, place not given here).
T12 chain: GPLATS[pT]PKNG
Briefly: fluorescence polarization.

PLK1 PBD (367–603), sequence (P53350 367-603): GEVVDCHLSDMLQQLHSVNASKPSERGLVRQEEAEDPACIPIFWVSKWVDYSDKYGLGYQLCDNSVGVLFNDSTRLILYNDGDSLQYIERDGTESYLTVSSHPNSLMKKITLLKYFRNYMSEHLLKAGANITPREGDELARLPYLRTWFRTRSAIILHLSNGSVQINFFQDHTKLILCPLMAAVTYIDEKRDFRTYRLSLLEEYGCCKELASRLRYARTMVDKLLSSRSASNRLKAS

A word on the IC50: it is the concentration at which inhibition is half-maximal. A high value points to lower potency. `CC(C)C[C@H](NC(=O)CNC(=O)[C@H](CC(N)=O)NC(=O)[C@@H]1CCCN1C(=O)[C@@H](NC(=O)[C@H](CO)NC(=O)[C@H](CS)NC(=O)[C@H](CC(C)C)NC(=O)[C@@H](N)CC(C)C)[C@@H](C)OP(=O)(O)O)C(=O)O` [Compound 1, LLCS[pT]PNGL] (H-LLCS[pT]PNGL-OH): on PLK3 PBD (335–646), the IC50 was above 600 µM.

For `CC[C@H](C)[C@H](NC(=O)[C@H](C)NC(=O)[C@@H](NC(=O)[C@H](CO)NC(=O)[C@H](Cc1c[nH]cn1)NC(=O)[C@H](CC(C)C)NC(=O)[C@@H]1CCCN1C(C)=O)[C@@H](C)OP(=O)(O)O)C(=O)O` [Compound 4, Ac-PLHS[pT]AI] (Ac-PLHS[pT]AI-OH), on PLK1 PBD (367–603), the “Selectivity Index” value is listed as 21,133.

With `CC[C@H](C)[C@H](NC(=O)[C@H](C)NC(=O)[C@@H](NC(=O)[C@H](CO)NC(=O)[C@H](Cc1c[nH]cn1)NC(=O)[C@H](CC(C)C)NC(C)=O)[C@@H](C)OP(=O)(O)O)C(=O)O` [Compound 5, Ac-LHS[pT]AI] (Ac-LHS[pT]AI-OH), the “PLK3 PBD FP IC50” value at PLK3 PBD (335–646) (competition with fluorescein tracer GPLATS[pT]PKNG, maximum 600 μM tested) was “lost all detectable affinity”.

Consider `CC(=O)N1CCC[C@H]1C(=O)N[C@@H](CC(C)C)C(=O)N[C@@H](Cc1c[nH]cn1)C(=O)N[C@@H](CO)C(=O)N[C@H](C(=O)N1CCC[C@H]1C(=O)N[C@@H](CCCCN)C(=O)N[C@@H](CC(N)=O)C(=O)NCC(=O)O)[C@@H](C)OP(=O)(O)O` [Compound 9, Ac-PLHS[pT]PKNG] (Ac-PLHS[pT]PKNG-OH), for which the “Selectivity Index” value at PLK1 PBD (367–603) is 20,906.

As for LLCSTPNGL [Compound 2], the “PLK1 PBD FP IC50” value at PLK1 PBD (367–603) (competition with fluorescein tracer MAGPMQS[pT]PLNGAKK, maximum 600 μM tested) is recorded as “almost complete loss of binding”.

B1: PLK3 PBD 335-646 (protein)
chain: T1 sequence (Q9H4B4 335-646)
As usually defined, the Kd is the free concentration of one partner at which half of the binding sites on the other are occupied at equilibrium, for simple one-to-one binding. Low values mean higher affinity, high ones lower affinity. With B1, the IC50 with PLK3 consensus peptide 7 was 2.2 µM; in the assay with chimeric peptide 8 it was 6.3 µM; with chimeric peptide 9 it was 134 µM; in the assay with FLIP 21, 149 µM; with Cdc25C phosphopeptide 1, above 600 µM; with chimeric peptide 3, 164 µM. The IC50 in the assay with FLIP 19 was above 600 µM; with PBIP phosphopeptide 4, 270 µM; with PBIP phosphopeptide 6, above 600 µM; with PBIP phosphopeptide 5, above 600 µM. The same molecule gave a Kd in assay [1] of 0.0272 µM.
